59 variants from the Human Domainome abundance scans (Beltran et al. 2025) can be followed below.

B1: E3 ubiquitin-protein ligase Midline-1, residues 172 to 214; numbered along this chain, O15344 (parent)
chain: GLMCLEHEDEKVNMYCVTDDQLICALCKLVGRHRDHQVAALSE

± gives the uncertainty stated by the source.

The variants in this data set derive from B1. In words: abundance fitness (aPCA) (normalised: wild type 0, dead -1); higher = more abundant; growth selection in yeast, the domain comes from the species named. The settings on record: Homo sapiens.
Regarding GLMCLEHEDEKVTMYCVTDDQLICALCKLVGRHRDHQVAALSE, the abundance fitness is -0.043 ± 0.11. As for GLMCLEHEDEKVPMYCVTDDQLICALCKLVGRHRDHQVAALSE, the figure is -0.567 ± 0.28; as for GLMCLEHEDEKVFMYCVTDDQLICALCKLVGRHRDHQVAALSE, 0.354 ± 0.19; as for GLMCLEHEDEKVSMYCVTDDQLICALCKLVGRHRDHQVAALSE, -0.345 ± 0.095. Take GLMCLEHEDEKVYMYCVTDDQLICALCKLVGRHRDHQVAALSE: the abundance fitness was -0.108 ± 0.16. As for GLMCLEHEDEKVAMYCVTDDQLICALCKLVGRHRDHQVAALSE, the figure is -0.146 ± 0.055; as for GLMCLEHEDEKVCMYCVTDDQLICALCKLVGRHRDHQVAALSE, -0.13 ± 0.1; as for GLMCLEHEDEKVGMYCVTDDQLICALCKLVGRHRDHQVAALSE, -0.022 ± 0.045.

On to GLMCLEHEDEKVVMYCVTDDQLICALCKLVGRHRDHQVAALSE, for which the abundance fitness is -0.396 ± 0.055. As for GLMCLEHEDEKVRMYCVTDDQLICALCKLVGRHRDHQVAALSE, the figure is -0.137 ± 0.049; as for GLMCLEHEDEKVLMYCVTDDQLICALCKLVGRHRDHQVAALSE, -0.254 ± 0.077; as for GLMCLEHEDEKVEMYCVTDDQLICALCKLVGRHRDHQVAALSE, -0.084 ± 0.063. As for GLMCLEHEDEKVQMYCVTDDQLICALCKLVGRHRDHQVAALSE, the figure is 0.005 ± 0.078; as for GLMCLEHEDEKVDMYCVTDDQLICALCKLVGRHRDHQVAALSE, -0.071 ± 0.092; as for GLMCLEHEDEKVKMYCVTDDQLICALCKLVGRHRDHQVAALSE, 0.04 ± 0.071.

Turning to GLMCLEHEDEWVNMYCVTDDQLICALCKLVGRHRDHQVAALSE, the abundance fitness was -0.288 ± 0.067. As for GLMCLEHEDEVVNMYCVTDDQLICALCKLVGRHRDHQVAALSE, the figure is -0.259 ± 0.059. Consider GLMCLEHEDERVNMYCVTDDQLICALCKLVGRHRDHQVAALSE, for which the abundance fitness is -0.012 ± 0.052. As for GLMCLEHEDEQVNMYCVTDDQLICALCKLVGRHRDHQVAALSE, the figure is 0.158 ± 0.079; as for GLMCLEHEDEMVNMYCVTDDQLICALCKLVGRHRDHQVAALSE, 0.096 ± 0.096. Next, GLMCLEHEDENVNMYCVTDDQLICALCKLVGRHRDHQVAALSE: 0.027 ± 0.14. With GLMCLEHEDESVNMYCVTDDQLICALCKLVGRHRDHQVAALSE, the abundance fitness was -0.07 ± 0.063.

Turning to GLMCLEHEDEPVNMYCVTDDQLICALCKLVGRHRDHQVAALSE, the abundance fitness is -0.259 ± 0.18. Take GLMCLEHEDEKVNMQCVTDDQLICALCKLVGRHRDHQVAALSE: the abundance fitness came out at 0.315 ± 0.075. With GLMCLEHEDEKVNMGCVTDDQLICALCKLVGRHRDHQVAALSE, the abundance fitness is -0.015 ± 0.046. Consider GLMCLEHEDEKVNMWCVTDDQLICALCKLVGRHRDHQVAALSE, for which the abundance fitness was -0.089 ± 0.095.

On to GLMCLEHEDEKVNMVCVTDDQLICALCKLVGRHRDHQVAALSE, for which the abundance fitness was -0.014 ± 0.059.

Consider GLMCLEHEDEKVNMLCVTDDQLICALCKLVGRHRDHQVAALSE, for which the abundance fitness worked out at 0.014 ± 0.063. As for GLMCLEHEDEKVNMACVTDDQLICALCKLVGRHRDHQVAALSE, the figure is 0.045 ± 0.051.

On to GLMCLEHEDEKVNMTCVTDDQLICALCKLVGRHRDHQVAALSE, for which the abundance fitness was -0.288 ± 0.086. Regarding GLMCLEHEDEKVNMECVTDDQLICALCKLVGRHRDHQVAALSE, the abundance fitness is 0.001 ± 0.058. Turning to GLMCLEHEDEKVNMKCVTDDQLICALCKLVGRHRDHQVAALSE, the abundance fitness amounted to 0.28 ± 0.078. GLMCLEHEDEKVNMRCVTDDQLICALCKLVGRHRDHQVAALSE: the abundance fitness worked out at 0.258 ± 0.047. Next, GLMCLEHEDEKVNMSCVTDDQLICALCKLVGRHRDHQVAALSE: -0.023 ± 0.061; GLMCLEHEDEKVNMMCVTDDQLICALCKLVGRHRDHQVAALSE: -0.094 ± 0.093; GLMCLEHEDEKVNMCCVTDDQLICALCKLVGRHRDHQVAALSE: 0.059 ± 0.072. As to GLMCLEHEDEKVNMHCVTDDQLICALCKLVGRHRDHQVAALSE, the abundance fitness is 0.151 ± 0.14. As for GLMCLEHEDEKVNMNCVTDDQLICALCKLVGRHRDHQVAALSE, the figure is -0.165 ± 0.13; as for GLMCLEHEDEKVNMYCVDDDQLICALCKLVGRHRDHQVAALSE, -0.152 ± 0.079.

GLMCLEHEDEKVNMYCVYDDQLICALCKLVGRHRDHQVAALSE: the abundance fitness was -0.482 ± 0.23. As for GLMCLEHEDEKVNMYCVLDDQLICALCKLVGRHRDHQVAALSE, the abundance fitness was -0.32 ± 0.066. As for GLMCLEHEDEKVNMYCVMDDQLICALCKLVGRHRDHQVAALSE, the abundance fitness was -0.394 ± 0.15.

With GLMCLEHEDEKVNMYCVWDDQLICALCKLVGRHRDHQVAALSE, the abundance fitness was -0.532 ± 0.094.

Regarding GLMCLEHEDEKVNMYCVRDDQLICALCKLVGRHRDHQVAALSE, the abundance fitness is -0.101 ± 0.057.

For the variant GLMCLEHEDEKVNMYCVVDDQLICALCKLVGRHRDHQVAALSE, the abundance fitness was -0.077 ± 0.064. Next, GLMCLEHEDEKVNMYCVPDDQLICALCKLVGRHRDHQVAALSE: -0.492 ± 0.14; GLMCLEHEDEKVNMYCVCDDQLICALCKLVGRHRDHQVAALSE: -0.256 ± 0.1.

For GLMCLEHEDEKVNMYCVQDDQLICALCKLVGRHRDHQVAALSE, the abundance fitness was -0.073 ± 0.1. As for GLMCLEHEDEKVNMYCVKDDQLICALCKLVGRHRDHQVAALSE, the figure is -0.019 ± 0.063; as for GLMCLEHEDEKVNMYCVNDDQLICALCKLVGRHRDHQVAALSE, -0.048 ± 0.45; as for GLMCLEHEDEKVNEYCVTDDQLICALCKLVGRHRDHQVAALSE, 0.176 ± 0.055. As for GLMCLEHEDEKVNSYCVTDDQLICALCKLVGRHRDHQVAALSE, the abundance fitness came out at 0.267 ± 0.065. With GLMCLEHEDEKVNPYCVTDDQLICALCKLVGRHRDHQVAALSE, the abundance fitness was -0.405 ± 0.075. Next, GLMCLEHEDEKVNGYCVTDDQLICALCKLVGRHRDHQVAALSE: 0.059 ± 0.045; GLMCLEHEDEKVNRYCVTDDQLICALCKLVGRHRDHQVAALSE: 0.033 ± 0.055; GLMCLEHEDEKVNTYCVTDDQLICALCKLVGRHRDHQVAALSE: 0.301 ± 0.084. On to GLMCLEHEDEKVNHYCVTDDQLICALCKLVGRHRDHQVAALSE, for which the abundance fitness was -0.112 ± 0.3. As to GLMCLEHEDEKVNAYCVTDDQLICALCKLVGRHRDHQVAALSE, the abundance fitness was 0.043 ± 0.048. Turning to GLMCLEHEDEKVNLYCVTDDQLICALCKLVGRHRDHQVAALSE, the abundance fitness is -0.022 ± 0.055.
